# Test system: MS2 coat protein
# Test: apparent KD of MS2 coat protein; designed switch direction (-1 OFF switch, 1 ON switch): -1; higher = weaker reporter binding
# In short: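 SNAP-549-labelled MS2 coat protein was titrated, doubling from 0.7 or 1.5 nM to 3 µM, over designed RNA switches transcribed on Illumina chips by stalled E. coli RNA polymerase. Runs were done without input, with 200 uM small-molecule ligand, or with an oligonucleotide input. Apparent KD is the per-design median over clusters of curve-fitted normalised fluorescence.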
# [1] = input ligand: microRNA oligo, concentration not stated
# [2] = Eterna round: R95, input ligand: microRNA oligo, concentration not stated
# [3] = Eterna round: R95, input ligand: FMN 200 uM
# [4] = Eterna round: R95, input ligand: none
Sequence,apparent KD of MS2 coat protein (input ligand: FMN 200 uM) [nM],apparent KD of MS2 coat protein (input ligand: none) [nM],apparent KD of MS2 coat protein [2] [nM],other results
"GUCCUGGACUAUCACAAGCACAUGAGGAUCACCCAUGUCAUGGGUAGAUCCAUAAAUAAAGAUACUGCUCGUCUUAU [Cac sensor turnoff var1 sub5] (Eterna round: R97, puzzle: Sensor, turn-off variant 1)",177,303,,
"UUGAAAGGUGUAGGAUAUGUAUGAGGAUCACCCAUUAAUAAAUUUUAACCACGAGGAUCACCCGUGUAGAAGGACACCUUUCAA [pwkr exNG2 2xF5 1xFMN.18] (Eterna round: R96, puzzle: Exclusion NG 2)",36.9,31.8,,apparent KD of MS2 coat protein [1]: 18 nM
"GAGUGAUGAGGAUAUACAUGAGGAUCACCCAUGUGCUUCAGCUAGGAGACUAGCAUUGGUAGAAGGCAUUACUC [Mod of lroppy 7 - Jieux - Exclusion 3] (Eterna round: R97, puzzle: Exclusion 3)",90.1,15.8,,
"CGCAUGUGAGGAUAUGUACUAGUUGAGCACAGUCAGCCAGAACAGAAGGCACAUGAGGAUCACCCAUGUGUACC [EX4 B.7] (Eterna round: R97, puzzle: Exclusion 4)",154,22.3,,
AGGUAGCAAGGAUAUACAACUUUGGGCACUGCCUCUUGGAGACAUGAGGAUCACCCAUGUAGAAGGUGCAGGCC [Tibiarusor] (puzzle: Exclusion 2),,,11.7,
GGAUCGAGUGUGAGGAUAUGCUGGUCCUUGGAUCAGCAGAAGGCACAUGAGGAUCACCCAUGUGAAUACGGUCC [JL bmx4 3.15] (puzzle: Brourd's mod of Exclusion 4),,,23.8,
AGAUCACAUGAGGAUCACCCAUGUCAGGAUAUGAUACUAUGUACUUCGGUACAUAGUAUCAGAAGGGAUAUAAA [Ex1-3: 68] (puzzle: Exclusion 1),,,75.1,
"AGCGGACAAGGAUAUACAUGAGGAUCACCCAUGUACUUAGCAAGUUUGUUUCGUCGAUGUAGAAGGUGUAAUGU [EX3 C.14] (Eterna round: R97, puzzle: Exclusion 3)",19.4,20.2,,
UUGAACAUAGGAUAUAGUUGUUUGUACAUGAGGAUCACCCAUGUUAUGUAUGUUUUGUUUCUAGAAGGAUGUUGAU [JR_E5_Sub002] (puzzle: Exclusion 5),,,32.5,
"UUCAUGUAAGGAUAUGUAGUGAUGACGAAAUUUGUCGUUAAACAGAAGGUACAUGAGGAUCACCCAUGUAGCUA [EX4 B.9] (Eterna round: R97, puzzle: Exclusion 4)",133,27.4,,
AACUACUCUGUGAGGAUAUGCGAUCGUUGAUCAAAGCAGAAGGCACAUGAGGAUCACCCAUGUUCCUACGAGGG [Edatbiat] (puzzle: Brourd's mod of Exclusion 4),,,30.2,
"AAUACAAGCUAUUGAUCCCACAUGAGGAUCACCCAUGUAGCUGGCCGUGAGACCAGCUUUACAAUAGCUCGUCUUAU [Sensor-V1 #49] (Eterna round: R97, puzzle: Sensor, turn-off variant 1)",75.2,71.3,,
"CUGCUCCGUGUAGGAUAUGCGCGCACCCAACGCGCAGAAGGACAUGAGGAUCACCCAUGUAUGUUAUUAUCACGUGAGGCGCAG [Design 34] (Eterna round: R96, puzzle: Exclusion NG 1)",28.8,17.7,,apparent KD of MS2 coat protein [1]: 14.4 nM
"GGCCCGGGAGGAUAUACAUGAGGAUCACCCAUGUUGAAGUUGAAGAUCUUCGGCUUCGGUAGAAGGCCCGGGCC [-35, -32.8 kcal, 23% A, 3, 0] (Eterna round: R97, puzzle: Exclusion 3)",18.2,13.6,,
GAUUGACAUGAGGAUCACCCAUGUGAGGAUAUCGGCUGGACCGUGUUGGCGUGCCUCUCGAGAAGGCGCAUAGG [Exclusion 1 V54] (puzzle: Exclusion 1),,,39.9,apparent KD of MS2 coat protein [3]: 64.8 nM; apparent KD of MS2 coat protein [4]: 51.3 nM
AAAAUGGUCUAGGAUAUGACAAAUCUGAUCACGUCAGAAGGAGACACAUGAGGAUCACCCAUGUGGGUGCGAAA [Qureenan] (puzzle: Exclusion 6),,,44.4,apparent KD of MS2 coat protein [3]: 130 nM; apparent KD of MS2 coat protein [4]: 39.5 nM

Sequence,apparent KD of MS2 coat protein (input ligand: FMN 200 uM) [nM],apparent KD of MS2 coat protein (input ligand: none) [nM],apparent KD of MS2 coat protein [2] [nM],other results
"GCAGACGUAGUGAGGAUAUGCUCUACCUCGGUAGAGCAGAAGGCACAUGAGGAUCACCCAUGUGAUUCUUCUGC [Omei Ex4B B10] (Eterna round: R97, puzzle: Brourd's mod of Exclusion 4)",324,47.2,,
"AGACGGAGAAAAGGAUAUGAGACACUAGACGUCUCAGAAGGUUUAGCCAGUAGCUCCAACAUGAGGAUCACCCAUGUGGUCGUA [Eternabot solution 41] (Eterna round: R96, puzzle: Exclusion NG 1)",50,184,,apparent KD of MS2 coat protein [1]: 108 nM
"ACUUUUUGAGGAUAUACAUUGAUUAACAUGAGGAUCACCCAUGUACAAACAUGUAUUUGUGUAGAAGGCAGAAGAA [JR_Ex5_Sub068] (Eterna round: R97, puzzle: Exclusion 5)",14.9,13.2,,
"ACAAGCUUGUAAUGACUUAACAUGAGGAUCACCCAUGUAAAUGGAAGAACCAACUUGAUAUGAUUUACUCGUCUUAU [JR_STOV1_Sub010] (Eterna round: R97, puzzle: Sensor, turn-off variant 1)",1140,1030,,
"AUAAUGUAAGGAUAUCAGUCGACUAGCUGCGGCUAGUCGACUGAGAAGGUACAUGAGGAUCACCCAUGUGAAUA [E4/16-A3] (Eterna round: R97, puzzle: Exclusion 4)",224,41.7,,
"UUAACAUGCUGGUGAUCAUACAUGAGGAUCACCCAUGUAACAAGCUUUUUGCUCGUCUUAUAAGAUUACUAGUAUGU [Stov1/10-A1] (Eterna round: R97, puzzle: Sensor, turn-off variant 1)",24.2,26.4,,
"CCCUCACAUGAGGAUCACCCAUGUAAGGAUAUCUUCGCUUUGACGUUGUUGAAUGCGAAGAGAAGGUGCACGGC [jl-ex1-4.71 ViennaUCT mod] (Eterna round: R97, puzzle: Exclusion 1)",43,20.9,,
"CAGUACUGAGGAUAUACAUGAGGAUCACCCAUGUGAGAGUUACUAGUGAGGUCGAUUAGUAGAAGGCAGUACUG [Mat X3R4 m29] (Eterna round: R97, puzzle: Exclusion 3)",215,39.6,,
"GCAGACGUAGUGAGGAUAUGCUCUACCUCGGUAGAGCAGAAGGCACAUGAGGAUCACCCAUGUGGUUCCUCAUC [Omei Ex4B B19] (Eterna round: R97, puzzle: Brourd's mod of Exclusion 4)",54,15.6,,
"AGCAGACGAGGAUAUAAAUUUGAUAACAUGAGGAUCACCCAUGUGAUCGAUAGAUCAAAUUUAGAAGGUGUCUGCU [E5/7-B1] (Eterna round: R97, puzzle: Exclusion 5)",512,490,,
AGCCCUGGCGUCAGGAUAUCGAAACCGCAAAAGGACGAGAAGGGACAUGAGGAUCACCCAUGUAGUGAGUUAAA [Isedrecedi] (puzzle: Brourd's mod of Exclusion 4),,,34.5,apparent KD of MS2 coat protein [3]: 35.6 nM; apparent KD of MS2 coat protein [4]: 39 nM
"ACAAGCUUUUUGUUCGUCUUAUAAUAAUAAAUAAAUAUAACAUGAGGAUCACCCAUGUUGAGAAGACAGCCUCAUGU [Sesor Array 23 - Jieux - Sensor v3, turn-off variant 2] (puzzle: Sensor v3, turn-off variant 2)",,,42.7,apparent KD of MS2 coat protein [3]: 121 nM; apparent KD of MS2 coat protein [4]: 104 nM
"UGGGUACUCCAUAGAAGAGACAUGAGGAUCACCCAUGUAGGGCAAGCUUUUUGCUCGUCUUAGGAUGAGGGAUAGGA [JR_SV3TOV1_Sub014] (puzzle: Sensor v3, turn-off variant 1)",,,79.1,apparent KD of MS2 coat protein [3]: 171 nM; apparent KD of MS2 coat protein [4]: 188 nM
"GGACUGAAGCUAGGAUAUCCCGUGUGAUCACGAGGAGAAGGAGCGCACGGGUAGUCAACAUGAGGAUCACCCAUGUACAGUCCA [Laditiqu] (Eterna round: R96, puzzle: Exclusion NG 1)",50.1,20.6,,apparent KD of MS2 coat protein [1]: 15.4 nM
GAGUGACAUGAGGAUCACCCAUGUGAGGAUAUCGGACGGACCAAAUUAACAACAAACGCGAGAAGGCACAUCGG [Exclusion 1 V19] (puzzle: Exclusion 1),,,74.9,
GAGAGGUCAGGAUAUACGGAGAGAGGGAGUUGGUGAGGGUAACAUGAGGAUCACCCAUGUAGAAGGGACUAAGG [JR_Exclu2_Sub077] (puzzle: Exclusion 2),,,22.8,
